Positions count from the first letter of the chain named. In names and notes the source's numbering stands.

This is an account of results in patent US20230416347A1 (UNIVERSITY OF TENNESSEE RESEARCH FOUNDATION, published 2023).

Experiment [1] deals with T1, rVλ6Wil fibrils.
T1 construct: domain: λ6 variable domain; Synthetic amyloid-like fibrils; also called rVλWIL; rVλ6Wil synthetic fibrils
Description: plate assay, time-resolved fluorescence (anti-human Fc, streptavidin-europium), 4PL fit.
Description: (§1) The antibody-peptide conjugate was added to the wells in 2-fold serial dilution starting at 100 nM. For wells containing rVλ6WIL, the antibody-peptide conjugate was added to the wells in 2-fold serial dilution starting at 5 nM.

For experiment [2], the target named is T2, Per125 wtATTR extract (human, UniProt P02766 21-147). Described as above.
Description: as §1
In experiment [3] the target is T3, KEN hATTR extract (human, UniProt P02766 21-147). The experiment is described as above.
Description: as §1
The target of experiment [4] is T4, SHI ALλ liver extract.
T4 construct: Human AL amyloid extract; also called ALλ (SHI); ALλ SHI extract
Described as above.
Description: as §1

The target of experiment [5] is T5, TAL ALκ liver extract.
T5 construct: Human AL amyloid extract; also called ALκ (TAL); ALκ TAL
The experiment is described as above.
Description: as §1

The target in experiment [6] is T6, ALλ (BAL) amyloid extract.
T6 construct: Human AL amyloid extract; also called human AL (BAL) amyloid extract
Described as above.
Description: as §1

Experiment [7] deals with T7, ALλ (GRA) amyloid extract.
T7 construct: also called ALκ(GRA) amyloid extract
The experiment is described as above.
Description: as §1

Experiment [8] deals with T1, rVλ6Wil fibrils. Description: pulldown assay.
In experiment [9] the target is T2, Per125 wtATTR extract. Description: pulldown assay.
The target in experiment [10] is T3, KEN hATTR extract. Put plainly: pulldown assay.
For experiment [11], the target named is SNO hATTR extract (human, UniProt P02766 21-147). Description: pulldown assay.
Experiment [12] deals with Per253 wild type (wt) ATTR extract (human, UniProt P02766 21-147). Description: pulldown assay.
The target of experiment [13] is T4, SHI ALλ liver extract. Description: pulldown assay.
The target of experiment [14] is T5, TAL ALκ liver extract. Put plainly: pulldown assay.
Experiment [15] concerns the target T8, HIG ALκ1 extract.
T8 construct: Human AL amyloid extract; also called ALκ HIG extract
Description: pulldown assay.

The target in experiment [16] is T9, TYL ALλ extract.
T9 construct: Human AL amyloid extract; also called ALλ TYL extract
Description: pulldown assay.

Experiment [17] addresses T10, CAB ALκ4.
T10 construct: AL amyloid substrate of the pulldown assay
Description: pulldown assay.

Experiment [18] has as its target T1, rVλ6Wil fibrils. Description: EuLISA on rVλ6Wil fibrils (FIG. 5A).
In experiment [19] the target is T11, Len(1-22) monomer peptide (Homo sapiens (Human), UniProt P06312 21-42).
T11 construct: Analyte in SPR; on beads in the pulldown assay; also called Vκ4(LEN(1-22) beads)
T11 peptide: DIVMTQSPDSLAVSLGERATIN
Put plainly: SPR, antibody as ligand, peptide as analyte. (SPR reads the build-up and loss of mass on a sensor chip optically.)

The target in experiment [20] is T1, rVλ6Wil fibrils. Put plainly: EuLISA on rVλ6Wil fibrils; plot with two y axes.
Experiment [21] addresses T1, rVλ6Wil fibrils. Description: EuLISA.
Experiment [22] addresses T2, Per125 wtATTR extract. Description: EuLISA.
Experiment [23] addresses T4, SHI ALλ liver extract. Put plainly: EuLISA.
Experiment [24] has as its target T5, TAL ALκ liver extract. Description: EuLISA.

B1: PF.1 (VH9-D54E/VL4-N33S-p5R with VSPSV spacer, perfusion 1) (antibody, human IgG1, kappa)
heavy: not shown
light: DVVMTQSPLSLPVTLGQPASISCRSSQSLVHRSGNTYLHWFQQRPGQSPRLLIYKVSNRFSGVPDRFSGSGSGTDFTLKISRVEAEDVGVYFCFQTTYVPNTFGGGTKLEIKRTVAAPSVFIFPPSDEQLKSGTASVVCLLNNFYPREAKVQWKVDNALQSGNSQESVTEQDSKDSTYSLSSTLTLSKADYEKHKVYACEVTHQGLSSPVTKSFNRGECVSPSVRAQRAQARQARQAQRAQRAQARQARQ
notes: Antibody-peptide fusion, p5R on the light chain through VSPSV; perfusion culture 1 day, cation exchange, over 99% intact; also called VH9-D54E/VL4-N33S-VSPSV-p5R
For B1, the EC50 (usually the midpoint of the concentration-response curve) in [1] worked out at 0.15 nM; in [2], 0.18 nM; in experiment [3], 0.45 nM; in experiment [4] it was 0.32 nM; in [5], 0.4 nM; in experiment [6] it was 0.36 nM. Moreover, in experiment [7], the response was half-maximal at 0.6 nM (EC50).

B2: VH9/VL4 (antibody, V domains shown)
VH: QVQLQESGPGLVKPSETLSLTCTVSGFSLSSYGVSWIRQPPGKGLEWLGVIWGDGSTNYHPNLMSRVTISVDTSKSQVLFKLSSVTAADTAVYYCATLDYWGQGTSVTVSS
VL: DVVMTQSPLSLPVTLGQPASISCRSSQSLVHRNGNTYLHWFQQRPGQSPRLLIYKVSNRFSGVPDRFSGSGSGTDFTLKISRVEAEDVGVYFCFQTTYVPNTFGGGTKLEIK
notes: Humanized 11-1F4; also called VH9/VL4 parent
On to B2, for which the percent bound in [8] came out at 10.4%; in experiment [9], 1.36%; in experiment [10], 0.61%; in [11] it was 0.41%; in [12] it was 0.8%; in [13] it was 0.68%. In addition, the percent bound in experiment [14] was 0.72%; in experiment [15], 0.19%; in [16] it was 0.56%; in experiment [17], 2.43%. Also, the EC50 in experiment [18] was 7 nM. Further, the Kd – broadly, a measure of binding affinity in units of concentration – in experiment [19] is 43 nM. Moreover, the koff (usually a measure of how fast the partners let go of each other) in experiment [19] was determined as 0.0026 s⁻¹. Moreover, in [19], the kon (usually the second-order rate constant of association) worked out at 60400 M⁻¹ s⁻¹. In addition, the EC50 (read off the curve) – broadly, the concentration at which the effect is half-maximal – in experiment [20] was approximately 7 nM.

B3: m11-1F4 (antibody, V domains shown)
VH: QVQLKESGPGLVAPSQSLSITCTVSGFSLSSYGVSWVRQPPGKGLEWLGVIWGDGSTNYHPNLMSRLSISKDISKSQVLFKLNSLQTDDTATYYCVTLDYWGQGTSVTVSS
VL: B2 VL with S7T, T14S, Q17D, P18Q, F41Y, Q42L, R44K, R50K, V88L, V90L
notes: Murine monoclonal antibody; also called murine parent
Turning to B3, the EC50 was 543 nM in [21] and 1880 nM in [22]. In addition, the LogEC50 is 6.26 -log(M) in experiment [21], 5.72 -log(M) in [22], ~4.45 -log(M) in experiment [23] and ~3.03 -log(M) in [24]. In addition, the Max in experiment [21] was 184; in experiment [22], 209; in experiment [23], approximately 1510; in [24], approximately 35100.

B4: VH9-D54E + VL4 (antibody, V domains shown)
VH: B2 VH with D54E
VL: B2 VL
notes: Humanized 11-1F4 variant
As to B4, in experiment [19], binding was characterised by a dissociation constant (Kd) of 163 nM, the koff was found to be 0.00135 s⁻¹ and the kon came to 8280 M⁻¹ s⁻¹.

B5: VH9-D54A + VL4 (antibody, V domains shown)
VH: B2 VH with D54A
VL: B2 VL
notes: Humanized 11-1F4 variant
As to B5, in experiment [19], binding was put at a Kd of 2180 nM, the koff was found to be 0.000778 s⁻¹ and the kon was 356 M⁻¹ s⁻¹.

B6: VH9-D54Q + VL4 (antibody, V domains shown)
VH: B2 VH with D54Q
VL: B2 VL
notes: Humanized 11-1F4 variant
B6: in experiment [19], binding was characterised by a dissociation constant (Kd) of 256 nM, the koff is 0.000997 s⁻¹ and the kon was 3900 M⁻¹ s⁻¹.

B7: VH9-M64V + VL4 (antibody, V domains shown)
VH: B2 VH with M64V
VL: B2 VL
notes: Humanized 11-1F4 variant
In [19], B7 had a Kd of 21.8 nM, a koff of 0.00052 s⁻¹ and a kon of 23800 M⁻¹ s⁻¹.

B8: VH9 + VL4-G34A (antibody, V domains shown)
VH: B2 VH
VL: B2 VL with G34A
notes: Humanized 11-1F4 variant
In experiment [19], B8 gave a Kd of 30.4 nM, a koff of 0.00181 s⁻¹ and a kon of 59500 M⁻¹ s⁻¹.

B9: VH9 + VL4-N33A (antibody, V domains shown)
VH: B2 VH
VL: B2 VL with N33A
notes: Humanized 11-1F4 variant
For the molecule B9, in experiment [19], the Kd was found to be 88.5 nM, the koff is 0.001 s⁻¹ and the kon was found to be 11300 M⁻¹ s⁻¹.

B10: VH9 + VL4-N33Q (antibody, V domains shown)
VH: B2 VH
VL: B2 VL with N33Q
notes: Humanized 11-1F4 variant
Turning to B10, in experiment [19], the affinity, expressed as Kd, was 78.4 nM; the koff stood at 0.00104 s⁻¹; the kon is 13300 M⁻¹ s⁻¹.

B11: VH9-M64I + VL4 (antibody, V domains shown)
VH: B2 VH with M64I
VL: B2 VL
notes: Humanized 11-1F4 variant
In experiment [19], B11 came in with a Kd of 20.7 nM, a koff of 0.00192 s⁻¹ and a kon of 92900 M⁻¹ s⁻¹.

B12: VH9-D54S + VL4 (antibody, V domains shown)
VH: B2 VH with D54S
VL: B2 VL
notes: Humanized 11-1F4 variant
In experiment [19], B12 gave a Kd of 60.5 nM, a koff of 0.000139 s⁻¹ and a kon of 2300 M⁻¹ s⁻¹.

B13: VH9-M64L + VL4 (antibody, V domains shown)
VH: B2 VH with M64L
VL: B2 VL
notes: Humanized 11-1F4 variant
In experiment [19], B13 displayed a Kd of 22.4 nM, a koff of 0.00208 s⁻¹ and a kon of 93000 M⁻¹ s⁻¹.

B14: VH9-G55A + VL4 (antibody, V domains shown)
VH: B2 VH with G55A
VL: B2 VL
notes: Humanized 11-1F4 variant
With B14, in experiment [19], binding was put at a Kd of 17.2 nM, the koff was 0.000484 s⁻¹ and the kon was determined as 28200 M⁻¹ s⁻¹.

B15: VH9 + VL4-N33E (antibody, V domains shown)
VH: B2 VH
VL: B2 VL with N33E
notes: Humanized 11-1F4 variant
In experiment [19], B15 showed a Kd of 106 nM, a koff of 0.00131 s⁻¹ and a kon of 12300 M⁻¹ s⁻¹.

B16: VH9-M64A + VL4 (antibody, V domains shown)
VH: B2 VH with M64A
VL: B2 VL
notes: Humanized 11-1F4 variant
On to B16, for which, in experiment [19], binding was put at a Kd of 13.3 nM, the koff was determined as 0.00104 s⁻¹ and the kon amounted to 77900 M⁻¹ s⁻¹.

B17: VH9 + VL4-N33H (antibody, V domains shown)
VH: B2 VH
VL: B2 VL with N33H
notes: Humanized 11-1F4 variant
B17: in experiment [19], binding was put at a Kd of 56.6 nM, the koff came out at 0.000743 s⁻¹ and the kon was found to be 13100 M⁻¹ s⁻¹.

B18: VH9 + VL4-N33S (antibody, V domains shown)
VH: B2 VH
VL: B2 VL with N33S
notes: Humanized 11-1F4 variant
For B18, in experiment [19], the Kd is 66.9 nM, the koff amounted to 0.000954 s⁻¹ and the kon worked out at 14300 M⁻¹ s⁻¹.

B19: VH9-D54H + VL4 (antibody, V domains shown)
VH: B2 VH with D54H
VL: B2 VL
notes: Humanized 11-1F4 variant
Turning to B19, in [19], the Kd turned out to be 235 nM, the koff amounted to 0.00139 s⁻¹ and the kon amounted to 5930 M⁻¹ s⁻¹.

B20: VH9-G55V + VL4 (antibody, V domains shown)
VH: B2 VH with G55V
VL: B2 VL
notes: Humanized 11-1F4 variant
In experiment [19], B20 came in with a Kd of 483 nM, a koff of 0.00163 s⁻¹ and a kon of 3380 M⁻¹ s⁻¹.
